Assay results from patent US20080220446A1 (published 2008).

T1: factor XII (purified human factor XII from plasma) (human, UniProt P00748 20-615)
T1 construct: also called FXII
T1 sequence (looked up): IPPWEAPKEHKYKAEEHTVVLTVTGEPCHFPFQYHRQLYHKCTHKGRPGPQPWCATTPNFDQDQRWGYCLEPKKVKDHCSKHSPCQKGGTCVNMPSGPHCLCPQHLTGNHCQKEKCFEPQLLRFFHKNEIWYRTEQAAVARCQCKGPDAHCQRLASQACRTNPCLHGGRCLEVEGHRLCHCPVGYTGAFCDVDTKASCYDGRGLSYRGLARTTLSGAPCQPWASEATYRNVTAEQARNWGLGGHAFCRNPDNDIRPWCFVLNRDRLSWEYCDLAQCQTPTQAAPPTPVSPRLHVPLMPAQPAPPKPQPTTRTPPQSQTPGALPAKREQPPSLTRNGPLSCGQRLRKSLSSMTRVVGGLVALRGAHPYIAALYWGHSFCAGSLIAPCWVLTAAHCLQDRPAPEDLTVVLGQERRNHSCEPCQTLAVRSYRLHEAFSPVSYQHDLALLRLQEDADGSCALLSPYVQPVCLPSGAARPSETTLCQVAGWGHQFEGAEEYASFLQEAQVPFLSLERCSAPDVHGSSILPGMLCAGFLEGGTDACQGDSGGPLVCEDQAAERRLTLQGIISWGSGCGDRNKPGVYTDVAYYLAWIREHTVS


Tests used:
[1] = molecular target: T2, tissue-type plasminogen activator (tPA) (human, UniProt P00750 36-562); assay: ELISA, therapeutic coated on Nunc Immobilizer plate, concentration series of tPA, one-site binding fit
T2 construct: Full-length commercial tPA; also called Actilyse; Alteplase
Protocol: Plates were washed twice with Tris buffered saline pH 7.2 containing 0.1% Tween20 (TBST) and blocked with PBS containing 1% Tween20 for 1 hour at room temperature. […] Plates were washed five times with TBST and incubated with peroxidase labeled anti-mouse immunoglobulins (RAMPO; DAKOCytomation, Glostrup, Denmark) diluted 1:3000 in PBST for 30 minutes at room temperature. Plates were washed five times with PBS 0.1% Tween20, and stained with 100 μL/well of tetramethyl-benzidine (TMB) substrate (Biosource Europe, Nivelles, Belgium). The reaction was terminated with 50 μL/well of 2 M H₂SO₄ and substrate conversion was read at 450 nm on a Spectramax340 microplate reader. Curves were fitted with a one-site binding model (GraphPad Prism version 4.02 for Windows, Graphpad Software, Calif., USA) from which Kd and Bmax were determined.

[2] = molecular target: T2, tissue-type plasminogen activator (tPA); assay: ELISA, tPA coated, concentration series of recombinant β2GPI
Protocol: (§1) Binding of β₂GPI was assessed with monoclonal antibody 2B2²².
(§2) The positive control was amyloid fibrin peptide FP13. […] C. […] Eluted fractions are analyzed on Western blot after SDS-PA electrophoresis. […] Signals are corrected for background fluorescence of CL, DXS, ThT and buffer.

[3] = molecular target: T2, tissue-type plasminogen activator (tPA); assay: ELISA, tPA immobilized, concentration series of recombinant β2GPI
Protocol: as §1, §2

[4] = molecular target: T1, factor XII (purified human factor XII …); assay: ELISA, factor XII coated, concentration series of recombinant β2GPI
[5] = molecular target: T1, factor XII (purified human factor XII …); assay: ELISA, factor XII immobilized, concentration series of recombinant β2GPI
Protocol: as §1, §2

T2 sequence (P00750 36-562 limits assumed): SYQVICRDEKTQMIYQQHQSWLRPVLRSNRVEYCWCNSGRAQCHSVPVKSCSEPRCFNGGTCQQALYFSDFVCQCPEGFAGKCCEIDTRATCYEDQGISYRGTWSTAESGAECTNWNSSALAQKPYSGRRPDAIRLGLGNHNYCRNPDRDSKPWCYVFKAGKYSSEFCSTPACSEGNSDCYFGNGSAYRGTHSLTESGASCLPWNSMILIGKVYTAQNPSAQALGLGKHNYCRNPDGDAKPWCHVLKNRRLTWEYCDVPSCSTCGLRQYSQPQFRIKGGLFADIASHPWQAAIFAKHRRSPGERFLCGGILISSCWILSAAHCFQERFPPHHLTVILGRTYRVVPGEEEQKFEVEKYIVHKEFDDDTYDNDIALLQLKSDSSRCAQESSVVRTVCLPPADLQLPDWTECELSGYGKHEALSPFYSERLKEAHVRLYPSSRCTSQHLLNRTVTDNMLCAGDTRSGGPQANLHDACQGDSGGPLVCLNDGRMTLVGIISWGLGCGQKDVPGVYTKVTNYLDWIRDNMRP

Row | Kd [1] | Kd [2] | Kd [3] | Kd [4] | Kd [5] | Binder
1 | 216 nM | – | – | – | – | abciximab (ReoPro) (Fab, V domains shown) VH: EVQLQQSGTVLARPGASVKMSCEASGYTFTNYWMHWVKQRPGQGLEWIGAIYPGNSDTSYIQKFKGKAKLTAVTSTTSVYMELSSLTNEDSAVYYCTLYDGYYVFAYWGQGTLVTVSA VL: EIVLTQSPVTLSVTPGDSVSLSCRASRDISNNLHWFQQTSHESPRLLIKYASQSMSGIPSRFSGSGSGTDFTLSINSVETEDFGMYFCQQTNSWPYTFGGGTKLEIK
2 | 230 nM | – | – | – | – | human coagulation factor VIII (FVIII) (Aafact) (other) chain 1: ATRRYYLGAVELSWDYMQSDLGELPVDARFPPRVPKSFPFNTSVVYKKTLFVEFTDHLFNIAKPRPPWMGLLGPTIQAEVYDTVVITLKNMASHPVSLHAVGVSYWKASEGAEYDDQTSQREKEDDKVFPGGSHTYVWQVLKENGPMASDPLCLTYSYLSHVDLVKDLNSGLIGALLVCREGSLAKEKTQTLHKFILLFAVFDEGKSWHSETKNSLMQDRDAASARAWPKMHTVNGYVNRSLPGLIGCHRKSVYWHVIGMGTTPEVHSIFLEGHTFLVRNHRQASLEISPITFLTAQTLLMDLGQFLLFCHISSHQHDGMEAYVKVDSCPEEPQLRMKNNEEAEDYDDDLTDSEMDVVRFDDDNSPSFIQIRSVAKKHPKTWVHYIAAEEEDWDYAPLVLAPDDRSYKSQYLNNGPQRIGRKYKKVRFMAYTDETFKTREAIQHESGILGPLLYGEVGDTLLIIFKNQASRPYNIYPHGITDVRPLYSRRLPKGVKHLKDFPILPGEIFKYKWTVTVEDGPTKSDPRCLTRYYSSFVNMERDLASGLIGPLLICYKESVDQRGNQIMSDKRNVILFSVFDENRSWYLTENIQRFLPNPAGVQLEDPEFQASNIMHSINGYVFDSLQLSVCLHEVAYWYILSIGAQTDFLSVFFSGYTFKHKMVYEDTLTLFPFSGETVFMSMENPGLWILGCHNSDFRNRGMTALLKVSSCDKNTGDYYEDSYEDISAYLLSKNNAIEPRSFSQNSRHPSTRQKQFNATTIPENDIEKTDPWFAHRTPMPKIQNVSSSDLLMLLRQSPTPHGLSLSDLQEAKYETFSDDPSPGAIDSNNSLSEMTHFRPQLHHSGDMVFTPESGLQLRLNEKLGTTAATELKKLDFKVSSTSNNLISTIPSDNLAAGTDNTSSLGPPSMPVHYDSQLDTTLFGKKSSPLTESGGPLSLSEENNDSKLLESGLMNSQESSWGKNVSSTESGRLFKGKRAHGPALLTKDNALFKVSISLLKTNKTSNNSATNRKTHIDGPSLLIENSPSVWQNILESDTEFKKVTPLIHDRMLMDKNATALRLNHMSNKTTSSKNMEMVQQKKEGPIPPDAQNPDMSFFKMLFLPESARWIQRTHGKNSLNSGQGPSPKQLVSLGPEKSVEGQNFLSEKNKVVVGKGEFTKDVGLKEMVFPSSRNLFLTNLDNLHENNTHNQEKKIQEEIEKKETLIQENVVLPQIHTVTGTKNFMKNLFLLSTRQNVEGSYDGAYAPVLQDFRSLNDSTNRTKKHTAHFSKKGEEENLEGLGNQTKQIVEKYACTTRISPNTSQQNFVTQRSKR chain 2: EITRTTLQSDQEEIDYDDTISVEMKKEDFDIYDEDENQSPRSFQKKTRHYFIAAVERLWDYGMSSSPHVLRNRAQSGSVPQFKKVVFQEFTDGSFTQPLYRGELNEHLGLLGPYIRAEVEDNIMVTFRNQASRPYSFYSSLISYEEDQRQGAEPRKNFVKPNETKTYFWKVQHHMAPTKDEFDCKAWAYFSDVDLEKDVHSGLIGPLLVCHTNTLNPAHGRQVTVQEFALFFTIFDETKSWYFTENMERNCRAPCNIQMEDPTFKENYRFHAINGYIMDTLPGLVMAQDQRIRWYLLSMGSNENIHSIHFSGHVFTVRKKEEYKMALYNLYPGVFETVEMLPSKAGIWRVECLIGEHLHAGMSTLFLVYSNKCQTPLGMASGHIRDFQITASGQYGQWAPKLARLHYSGSINAWSTKEPFSWIKVDLLAPMIIHGIKTQGARQKFSSLYISQFIIMYSLDGKKWQTYRGNSTGTLMVFFGNVDSSGIKHNIFNPPIIARYIRLHPTHYSIRSTLRMELMGCDLNSCSMPLGMESKAISDAQITASSYFTNMFATWSPSKARLHLQGRSNAWRPQVNNPKEWLQVDFQKTMKVTGVTTQGVKSLLTSMYVKEFLISSSQDGHQWTLFFQNGKVKVFQGNQDSFTPVVNSLDPPLLTRYLRIHPQSWVHQIALRMEVLGCEAQDLY
3 | – | 51 nM | 2.3 µg/mL | 20 nM | 0.9 µg/mL | recombinant human β2-glycoprotein I (insect cells) (other, UniProt P02749 20-345, looked up, also called recombinant β2GPI; rβ2GPI) GRTCPKPDDLPFSTVVPLKTFYEPGEEITYSCKPGYVSRGGMRKFICPLTGLWPINTLKCTPRVCPFAGILENGAVRYTTFEYPNTISFSCNTGFYLNGADSAKCTEEGKWSPELPVCAPIICPPPSIPTFATLRVYKPSAGNNSLYRDTAVFECLPQHAMFGNDTITCTTHGNWTKLPECREVKCPFPSRPDNGFVNYPAKPTLYYKDKATFGCHDGYSLDGPEEIECTKLGNWSAMPSCKASCKVPVKKATVVYQGERVKIQEKFKNGMLHGDKVSFFCKNKEKKCSYTEDAQCIDGTIEVPKCFKEHSSLAFWKTDASDVKPC
